Drawing on patent US7097843, this text covers Tm for three molecules.

The target in the experiment is recombinant HLA-A*0201 refolded with purified human beta2-microglobulin (human). The experiment can be described thus: circular dichroism melting of the refolded peptide-HLA-b2m complex (temperature at which 50% is melted).

For the molecule TLGIVCPIC (modifications not checked) [peptide A2.4], the Tm amounted to 41.5 °C.

For the molecule YMLDLQPET (modifications not checked) [peptide A2.2], the Tm was determined as 52.5 °C.

Turning to LLMGTLGIVCPIC (modifications not checked) [peptide A2.1/4], the Tm was determined as 41 °C.
